Experimental findings from PMC6937560 are described below.

The target in this assay is myeloperoxidase (MPO), mature form from neutrophils of healthy human donors (human) (UniProt P05164). Briefly: native MS; about 3 uM MPO in 150 mM ammonium acetate pH 7.5, direct infusion, Micromass LCT; monomer (light + heavy chain) to dimer.

Broadly, the stoichiometry N is a count of units in the complex or per binding partner. For “myeloperoxidase (MPO), mature form from neutrophils of healthy human donors (from UniProt P05164 279-745) (enzyme)”, the stoichiometry N is 2.
